{"source": "paper PMC6961784", "key": {"[1]": {"target": "SNAPf-tagged EWS/FLI1 (human)", "assay": "live-cell single-particle tracking"}, "FUS LCD": {"target": "FUS LCD (UniProt P35637)", "sequence (P35637 2-214)": "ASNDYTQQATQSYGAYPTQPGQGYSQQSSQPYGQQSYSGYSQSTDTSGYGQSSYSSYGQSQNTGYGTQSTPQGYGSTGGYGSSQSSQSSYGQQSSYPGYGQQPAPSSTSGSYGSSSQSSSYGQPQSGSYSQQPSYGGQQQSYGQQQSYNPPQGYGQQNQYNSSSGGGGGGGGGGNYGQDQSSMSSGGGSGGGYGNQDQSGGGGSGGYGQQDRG", "assay": "live-cell single-particle tracking"}}}
{"substance": "EWS LCD-Halo (domain or fragment)", "values": [{"measurement": "residence time (RT)", "setting": "[1]", "result": 16, "unit": "s"}]}
{"substance": "EWS(YS) LCD-Halo (domain or fragment)", "values": [{"measurement": "residence time (RT)", "setting": "[1]", "result": 7, "unit": "s"}]}
{"substance": "Sp1 LCD (from UniProt P08047 1-785) (domain or fragment)", "values": [{"measurement": "residence time (RT)", "setting": "FUS LCD", "result": "< 1", "unit": "s"}]}
